# Experimental data reported in patent publication US20120213794A1 (published 2012).
# Molecular target: human PCSK9 (human, UniProt Q8NBP7 31-692)
# Experiment: cell-based or functional assay
# Target sequence in this assay (Q8NBP7 31-692 limits assumed): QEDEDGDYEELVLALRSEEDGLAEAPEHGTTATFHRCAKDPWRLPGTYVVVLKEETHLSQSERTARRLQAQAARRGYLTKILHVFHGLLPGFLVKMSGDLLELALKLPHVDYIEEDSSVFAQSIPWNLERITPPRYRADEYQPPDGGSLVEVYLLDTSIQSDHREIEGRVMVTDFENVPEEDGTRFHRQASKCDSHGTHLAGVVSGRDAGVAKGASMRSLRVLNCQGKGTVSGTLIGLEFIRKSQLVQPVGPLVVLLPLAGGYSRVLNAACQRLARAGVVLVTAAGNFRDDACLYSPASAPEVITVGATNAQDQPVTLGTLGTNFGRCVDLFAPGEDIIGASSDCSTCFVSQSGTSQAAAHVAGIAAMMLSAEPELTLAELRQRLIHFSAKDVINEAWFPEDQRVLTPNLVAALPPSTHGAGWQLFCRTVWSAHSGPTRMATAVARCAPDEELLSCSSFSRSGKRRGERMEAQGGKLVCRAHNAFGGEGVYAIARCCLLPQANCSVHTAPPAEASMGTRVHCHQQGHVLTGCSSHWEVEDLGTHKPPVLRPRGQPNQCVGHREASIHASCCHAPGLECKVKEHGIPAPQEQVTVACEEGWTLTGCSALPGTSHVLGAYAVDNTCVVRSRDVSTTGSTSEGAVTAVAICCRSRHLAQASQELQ
row,"Fab IC50 (nM), inhibition of PCSK9 on LDL uptake [nM]",Binder
1,26.8,"AX210 Fab (Fab, V domains shown) VH: QVQLLESGGGLVQPGGSLRLSCKASGYTFSSYSIYWVRQAPGKGLEWIGWIDPGNGGTRYNQKFQSKATISRDNSKNTLYLQMNSLRAEDTAVYYCARARVGYSLDYWGQGTLVTVSS VL: EIVLTQSPATLSLSPGERATITCRASQYVGSYLNWYQQKPGQAPRLLIYDASNRATGIPARFSGSGSGTDFTLTISSLEPEDFAVYYCQVWDSSPPVVFGGGTKVEIK"
2,12.6,"AX211 Fab (Fab, V domains shown) VH: QVQLLESGGGLVQPGGSLRLSCKASGYTFSRQGFTWVRQAPGKGLEWIGWIDPGNGGTRYNEKFKGKATISRDNSKNTLYLQMNSLRAEDTAVYYCARYRVGYSLDYWGQGTLVTVSS VL: EIVLTQSPATLSLSPGERATITCRASQYVGSYLNWYQQKPGQAPRLLIYDASNRATGIPARFSGSGSGTDFTLTISSLEPEDFAVYYCQVWDSSPPVVFGGGTKVEIK"
3,14.7,"AX213 Fab (Fab, V domains shown) VH: QVQLLESGGGLVQPGGSLRLSCKASGYTFSRYGINWVRQAPGKGLEWIGRIDPGNGGTRYNEKFKGKATISRDNSKNTLYLQMNSLRAEDTAVYYCARANDGYSFDYWGQGTLVTVSS VL: EIVLTQSPATLSLSPGERATITCRASQYVGSYLNWYQQKPGQAPRLLIYDASNRATGIPARFSGSGSGTDFTLTISSLEPEDFAVYYCQVWDSSPPVVFGGGTKVEIKR [AX213 Fab, listing 1 of 2 here]"
4,13.8,"AX212 Fab (Fab, V domains shown) VH: QVQLLESGGGLVQPGGSLRLSCKASGYTFSSYSFSWVRQAPGKGLEWIGYIDPGSGGTKYNQKFQGKATISRDNSKNTLYLQMNSLRAEDTAVYYCARQRVGYSLDYWGQGTLVTVSS VL: EIVLTQSPATLSLSPGERATITCRASQYVGSYLNWYQQKPGQAPRLLIYDASNRATGIPARFSGSGSGTDFTLTISSLEPEDFAVYYCQVWDSSPPVVFGGGTKVEIK"

# Molecular target: T1, human PCSK9 (human, UniProt Q8NBP7 31-692)
# T1 construct: also called hPCSK9; proprotein convertase subtilisin-kexin type 9
# Experiment: SPR (Biacore), Fab captured by anti-Fab IgG, 1:1 fit
# Description: Biacore assay was developed. First, goat anti-Fab IgGs were immobilized onto CM5 chip by amine coupling as described above. The anti-Fab IgGs were diluted to 200 μg/ml in pH 5/10 mM Acetate solution, and injected onto the NHS/EDC activated surface to achieve an immobilization level of ˜10,000 RU, followed with surface inactivation by injection of Ethanolamine. Then Fab samples at concentration of 2 μg/ml in HBS-P running buffer were injected for 3 minutes at flow speed of 20 ul/min, followed with K-injection (3 minutes injection for association and 6 minutes for dissociation) of PCSK9 at concentration of 10 to 100 nM. The sensor chip surface was regenerated by 30 second injection of 100 mM phosphoric acid. The binding sensorgrams were fitted with 1:1 Langmuir binding model to determine the binding affinity.
# T1 sequence (Q8NBP7 31-692 limits assumed): as the sequence (Q8NBP7 31-692 limits assumed) above
Kd [nM],koff [s⁻¹],kon [M⁻¹ s⁻¹],Binder
13.2,0.00118,89700,"AX139 Fab (Fab, V domains shown, Tested as purified Fab) VH: EVQLLESGGGLVQPGGSLRLSCKASGYTFSSYGMYWVRQAPGKGLEWIGWIDPGSGGTKYNEKFKGKATISRDNSKNTLYLQMNSLRAEDTAVYYCARERYGYYFDYWGQGTLVTVSS VL: EIVLTQSPATLSLSPGERATITCRASQYVGSYLNWYQQKPGQAPRLLIYDAANRATGIPARFSGSGSGTDFTLTISSLEPEDFAVYYCQVWDSSPPVVFGGGTKVEIK"
1.67,0.000287,172000,"AX210 Fab (Fab, V domains shown, Tested as purified Fab) VH: QVQLLESGGGLVQPGGSLRLSCKASGYTFSSYSIYWVRQAPGKGLEWIGWIDPGNGGTRYNQKFQSKATISRDNSKNTLYLQMNSLRAEDTAVYYCARARVGYSLDYWGQGTLVTVSS VL: EIVLTQSPATLSLSPGERATITCRASQYVGSYLNWYQQKPGQAPRLLIYDASNRATGIPARFSGSGSGTDFTLTISSLEPEDFAVYYCQVWDSSPPVVFGGGTKVEIK"
48.5,0.00348,71700,"AX114 Fab (Fab, V domains shown, Tested as purified Fab from E. coli TG1) VH: EVQLLESGGGLVQPGGSLRLSCKASGYTFSSYGMYWVRQAPGKGLEWIGWIDPGSGGTKYNEKFKGKATISRDNSKNTLYLQMNSLRAEDTAVYYCARERYGYYFDYWGQGTLVTVSS VL: EIVLTQSPATLSLSPGERATITCRASQYVGTYLNWYQQKPGQAPRLLIYDASNRATGIPARFSGSGSGTDFTLTISSLEPEDFAVYYCQVWDSSPPVAFGGGTKVEIK"
1.67,0.000329,197000,"AX211 Fab (Fab, V domains shown, Tested as purified Fab) VH: QVQLLESGGGLVQPGGSLRLSCKASGYTFSRQGFTWVRQAPGKGLEWIGWIDPGNGGTRYNEKFKGKATISRDNSKNTLYLQMNSLRAEDTAVYYCARYRVGYSLDYWGQGTLVTVSS VL: EIVLTQSPATLSLSPGERATITCRASQYVGSYLNWYQQKPGQAPRLLIYDASNRATGIPARFSGSGSGTDFTLTISSLEPEDFAVYYCQVWDSSPPVVFGGGTKVEIK"
1.37,0.000329,243000,"AX213 Fab (Fab, V domains shown) VH: QVQLLESGGGLVQPGGSLRLSCKASGYTFSRYGINWVRQAPGKGLEWIGRIDPGNGGTRYNEKFKGKATISRDNSKNTLYLQMNSLRAEDTAVYYCARANDGYSFDYWGQGTLVTVSS VL: EIVLTQSPATLSLSPGERATITCRASQYVGSYLNWYQQKPGQAPRLLIYDASNRATGIPARFSGSGSGTDFTLTISSLEPEDFAVYYCQVWDSSPPVVFGGGTKVEIKR [AX213 Fab, listing 2 of 2 here]"
19.5,0.00208,107000,"AX137 Fab (Fab, V domains shown, Tested as purified Fab) VH: EVQLLESGGGLVQPGGSLRLSCKASGYTFSSYGMYWVRQAPGKGLEWIGWIDPGSGGTKYNEKFKGKATISRDNSKNTLYLQMNSLRAEDTAVYYCARERYGYYFDYWGQGTLVTVSS VL: EIVLTQSPATLSLSPGERATITCRASQYIGSYLNWYQQKPGQAPRLLIYDASNRATGIPARFSGSGSGTDFTLTISSLEPEDFAVYYCQAWDSSPPVVFGGGTKVEIK"
1.47,0.000233,159000,"AX212 Fab (Fab, V domains shown, Tested as purified Fab) VH: QVQLLESGGGLVQPGGSLRLSCKASGYTFSSYSFSWVRQAPGKGLEWIGYIDPGSGGTKYNQKFQGKATISRDNSKNTLYLQMNSLRAEDTAVYYCARQRVGYSLDYWGQGTLVTVSS VL: EIVLTQSPATLSLSPGERATITCRASQYVGSYLNWYQQKPGQAPRLLIYDASNRATGIPARFSGSGSGTDFTLTISSLEPEDFAVYYCQVWDSSPPVVFGGGTKVEIK"

# Molecular target: T2, human PCSK9 (human, UniProt Q8NBP7 31-692)
# T2 construct: Secreted PCSK9 is autocleaved into prodomain and mature chain, and a His-tag is named for the HEK293 constructs; also called hPCSK9; proprotein convertase subtilisin-kexin type 9
# Experiment: SPR (Biacore), IgG captured by anti-human IgG, PCSK9 injected at 3.75-60 nM
# Description: The affinities of those IgG molecules were also measured by Biacore assay. Briefly, anti-human IgG monoclonal antibody form Human Antibody Capture Kit provided by Biacore was immobilized on CM5 chips at level of 8000 to 10000 RU. The IgG samples at concentration of ˜0.4 μg/ml was injected onto a sensor chip for 2 minutes at a flow rate of 20 μl/min, then PCSK9 proteins at 5 concentrations (3.75 to 60 nM) were injected onto an IgG captured flow cell for binding kinetic analysis. After each round injection, the sensor chip surface was regenerated by 30 second injection of 3M Magnesium Chloride.
# T2 sequence (Q8NBP7 31-692 limits assumed): as the sequence (Q8NBP7 31-692 limits assumed) above
Kd [nM],koff [s⁻¹],kon [M⁻¹ s⁻¹],Binder
2.07,0.00073,353000,"AX213 IgG (antibody, V domains shown) VH: EVQLLESGGGLVQPGGSLRLSCKASGYTFSRYGINWVRQAPGKGLEWIGRIDPGNGGTRYNEKFKGKATISRDNSKNTLYLQMNSLRAEDTAVYYCARANDGYSFDYWGQGTLVTVSS VL: EIVLTQSPATLSLSPGERATITCRASQYVGSYLNWYQQKPGQAPRLLIYDASNRATGIPARFSGSGSGTDFTLTISSLEPEDFAVYYCQVWDSSPPVVFGGGTKVEIKR"
24,0.00361,151000,"AX114 IgG (antibody, V domains shown, Purified IgG; also called AX114-IgG2) VH: EVQLLESGGGLVQPGGSLRLSCKASGYTFSSYGMYWVRQAPGKGLEWIGWIDPGSGGTKYNEKFKGKATISRDNSKNTLYLQMNSLRAEDTAVYYCARERYGYYFDYWGQGTLVTVSS VL: EIVLTQSPATLSLSPGERATITCRASQYVGTYLNWYQQKPGQAPRLLIYDASNRATGIPARFSGSGSGTDFTLTISSLEPEDFAVYYCQVWDSSPPVAFGGGTKVEIK"
2.64,0.000621,235000,"AX210 IgG (antibody, V domains shown, Purified IgG) VH: QVQLLESGGGLVQPGGSLRLSCKASGYTFSSYSIYWVRQAPGKGLEWIGWIDPGNGGTRYNQKFQSKATISRDNSKNTLYLQMNSLRAEDTAVYYCARARVGYSLDYWGQGTLVTVSS VL: EIVLTQSPATLSLSPGERATITCRASQYVGSYLNWYQQKPGQAPRLLIYDASNRATGIPARFSGSGSGTDFTLTISSLEPEDFAVYYCQVWDSSPPVVFGGGTKVEIK"
9.98,0.00332,333000,"AX137 IgG (antibody, V domains shown, Purified IgG) VH: EVQLLESGGGLVQPGGSLRLSCKASGYTFSSYGMYWVRQAPGKGLEWIGWIDPGSGGTKYNEKFKGKATISRDNSKNTLYLQMNSLRAEDTAVYYCARERYGYYFDYWGQGTLVTVSS VL: EIVLTQSPATLSLSPGERATITCRASQYIGSYLNWYQQKPGQAPRLLIYDASNRATGIPARFSGSGSGTDFTLTISSLEPEDFAVYYCQAWDSSPPVVFGGGTKVEIK"
1.63,0.000589,361000,"AX211 IgG (antibody, V domains shown, Purified IgG) VH: QVQLLESGGGLVQPGGSLRLSCKASGYTFSRQGFTWVRQAPGKGLEWIGWIDPGNGGTRYNEKFKGKATISRDNSKNTLYLQMNSLRAEDTAVYYCARYRVGYSLDYWGQGTLVTVSS VL: EIVLTQSPATLSLSPGERATITCRASQYVGSYLNWYQQKPGQAPRLLIYDASNRATGIPARFSGSGSGTDFTLTISSLEPEDFAVYYCQVWDSSPPVVFGGGTKVEIK"
2.12,0.000324,153000,"AX212 IgG (antibody, V domains shown, Purified IgG) VH: QVQLLESGGGLVQPGGSLRLSCKASGYTFSSYSFSWVRQAPGKGLEWIGYIDPGSGGTKYNQKFQGKATISRDNSKNTLYLQMNSLRAEDTAVYYCARQRVGYSLDYWGQGTLVTVSS VL: EIVLTQSPATLSLSPGERATITCRASQYVGSYLNWYQQKPGQAPRLLIYDASNRATGIPARFSGSGSGTDFTLTISSLEPEDFAVYYCQVWDSSPPVVFGGGTKVEIK"
